Literature values, collected in publication PMC3101942.

Molecular target: tissue factor (Homo sapiens) (UniProt P13726)
Sequence of UniProt P13726 (P13726 33-251): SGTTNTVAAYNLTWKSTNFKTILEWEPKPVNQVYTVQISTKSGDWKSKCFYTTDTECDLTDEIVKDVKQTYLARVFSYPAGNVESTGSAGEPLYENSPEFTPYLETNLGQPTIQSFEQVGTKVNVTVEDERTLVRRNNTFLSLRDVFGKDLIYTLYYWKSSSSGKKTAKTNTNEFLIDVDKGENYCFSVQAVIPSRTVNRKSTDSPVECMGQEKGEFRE

Kd: 1 pM
Substance: factor VII (from UniProt P08709)
